Source: PMC3064480

Legend:
[1] = molecular target: Recombinant human TβRI-ED (residues 1-101) (human); experiment: ELISA
[2] = molecular target: Recombinant human TβRII-ED (residues 1-137) (human); experiment: ELISA
Recombinant human TβRII-ED (residues 1-137) (human), sequence (P37173 whole entry, the tested form may be a part): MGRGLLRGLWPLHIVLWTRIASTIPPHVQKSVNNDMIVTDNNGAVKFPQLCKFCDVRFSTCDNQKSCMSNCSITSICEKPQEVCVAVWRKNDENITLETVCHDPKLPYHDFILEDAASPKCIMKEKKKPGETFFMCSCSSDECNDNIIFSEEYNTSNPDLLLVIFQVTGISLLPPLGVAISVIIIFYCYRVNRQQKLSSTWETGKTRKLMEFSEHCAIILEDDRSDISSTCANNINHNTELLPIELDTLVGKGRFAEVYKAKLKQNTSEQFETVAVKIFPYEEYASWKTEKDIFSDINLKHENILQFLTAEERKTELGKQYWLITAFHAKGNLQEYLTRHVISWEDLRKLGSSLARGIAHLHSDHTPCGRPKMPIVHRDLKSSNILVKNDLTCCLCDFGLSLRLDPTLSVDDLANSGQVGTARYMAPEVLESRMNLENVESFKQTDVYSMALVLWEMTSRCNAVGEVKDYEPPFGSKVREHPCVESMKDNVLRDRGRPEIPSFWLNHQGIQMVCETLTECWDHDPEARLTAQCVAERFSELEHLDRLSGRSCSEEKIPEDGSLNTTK

In the case of LTGKNFPMFHRN [phage clone 1 (M13 phage displaying … on the N-terminus of the PIII protein)], the Kd [1] is reported as 0.0001 µM.

In the case of LTGKNFPMFHRN [Pep1 (synthetic peptide …)], the IC50 [2] is reported as 156 µM, the Kd [2] is reported as 10 µM and the IC50 [1] is reported as 110 µM. The Kd [1] was 10 µM.

MHRMPSFLPTTL [phage clone 2 (M13 phage displaying … on the N-terminus of the PIII protein)] gave a Kd [1] of 0.0001 µM.

MHRMPSFLPTTL [Pep2 (synthetic peptide …)] was tested, and the IC50 [2] was 274 µM, the Kd [2] was 10 µM and the IC50 [1] was 256 µM. The Kd [1] was 10 µM.
